Source: patent publication US20240228562A1, “NOVEL LIPOCALIN MUTEINS SPECIFIC FOR CONNECTIVE TISSUE GROWTH FACTOR (CTGF)” (PIERIS PHARMACEUTICALS GMBH, priority 2021, published 2024)

Legend:
[1] = Thermal stability assessment by nanoDSC; type: physicochemical; conditions: 1 mg/mL in PBS, scan 25-100° C. at 1° C./min; for TM: major transition
Method: To determine the melting temperatures (Tms) of the lipocalin muteins, which is a general indicator for folding stability, the CTGF specific muteins, at a protein concentration of 1 mg/mL in PBS (Gibco), were scanned (25-100° C.) at 1° C./min using a capillary nanoDSC instrument (CSC 6300, TA Instruments). […] Several unfolding events can contribute to the observed thermogram. In cases with multiple transitions, the one with the major unfolding energy best represents the overall protein fold and is reported. Muteins were produced as described in Example 3. SEQ ID NOs: 3, 7, 9, 25, and 29 were expressed using E. coli, the other muteins were expressed using CHO cells.
The resulting maximum melting temperatures as well as the onset temperature of melting for exemplary lipocalin muteins and fusion proteins are listed in Table 3 below.

human CTGF [2] = molecular target: T1, human CTGF (Homo sapiens, UniProt P29279); assay: SPR binding kinetics and affinity, human CTGF; set-up: key to human CTGF kon / human CTGF koff / human CTGF KD: B binding without determination of kinetics constants; conditions: 25° C., 1:1 binding model
T1 construct: purchased Creative Biomart
Method: (§1) Surface plasmon resonance (SPR) was used to measure binding kinetics and affinity of the representative lipocalin muteins disclosed herein.
(§2) The binding of exemplary lipocalin muteins to human (Creative Biomart), cynomolgus, rat (R&D Systems) and mouse CTGF (Abbexa) was determined by SPR using a Biacore instrument (Cytiva, formerly GE Healthcare). Some targets were fused to a human IgG1 Fc tag, and captured via the anti-human IgG antibody kit, others were directly immobilized.
(§3) For some measurements, human CTGF with a human IgG1 Fc Tag or rat or murine CTGF without a tag were directly immobilized to a CM5 Chip. The carboxyl groups on the chip were activated using 1-ethyl-3-(3-dimethylaminopropyl)-carbodiimide (EDC) and N-hydroxysuccinimide (NHS). Subsequently, the targets at a concentration of 3-5 μg/mL in 10 mM sodium acetate (pH) 4.5 were applied at a flow rate of 10 μL/min until an immobilization level of 300-1100 resonance units was achieved. Residual non-reacted NHS-esters were blocked by passing a solution of 1 M ethanolamine across the surface. The reference channel was activated/deactivated. For the capture setting, targets with an IgG Fc Tag at 0.25-2.5 μg/mL in HBS-EP+ buffer were captured by the anti-human IgG-Fc antibody at the chip surface for 180 s at a flow rate of 10 μL/min.
(§4) The binding assay was carried out with a contact time of 180 s, a dissociation time of 900-3600 s and a flow rate of 30 μL/min. All measurements were performed at 25° C. […] For the directly immobilized targets, the same regeneration conditions were used. Prior to the protein measurements, three startup cycles were performed for conditioning purposes. Data were evaluated with Biacore Evaluation software. Double referencing was used and the 1:1 binding model was used to fit the raw data.

human CTGF [3] = molecular target: T2, human CTGF (Homo sapiens, UniProt P29279, H83D); assay: SPR binding kinetics and affinity, human CTGF; set-up: key to human CTGF kon / human CTGF koff / human CTGF KD: B binding without determination of kinetics constants; conditions: 25° C., 1:1 binding model
T2 construct: purchased Creative Biomart
Method: as §1, §2, §3, §4

Murine CTGF = molecular target: T3, Murine CTGF (Mus musculus, UniProt P29268); assay: SPR binding kinetics and affinity, murine CTGF; set-up: key to Murine CTGF kon / Murine CTGF koff / Murine CTGF KD: B binding without determination of kinetics constants; conditions: 25° C., 1:1 binding model
T3 construct: purchased Abbexa
T3 sequence (P29268 26-348): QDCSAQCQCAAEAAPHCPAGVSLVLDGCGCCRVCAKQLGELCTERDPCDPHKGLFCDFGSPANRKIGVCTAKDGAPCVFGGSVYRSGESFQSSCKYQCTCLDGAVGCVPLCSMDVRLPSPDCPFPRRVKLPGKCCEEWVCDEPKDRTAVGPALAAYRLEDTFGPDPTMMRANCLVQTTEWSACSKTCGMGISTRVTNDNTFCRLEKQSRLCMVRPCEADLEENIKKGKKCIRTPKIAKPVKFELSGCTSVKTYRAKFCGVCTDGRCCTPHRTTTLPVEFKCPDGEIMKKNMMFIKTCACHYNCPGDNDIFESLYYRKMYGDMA
Method: as §1, §2, §3, §4
The values determined for kon, koff and the resulting equilibrium dissociation constant (KD) for exemplary lipocalin muteins are summarized in Table 4.

T1 sequence (P29279 with tags, fused parts or gaps H83D): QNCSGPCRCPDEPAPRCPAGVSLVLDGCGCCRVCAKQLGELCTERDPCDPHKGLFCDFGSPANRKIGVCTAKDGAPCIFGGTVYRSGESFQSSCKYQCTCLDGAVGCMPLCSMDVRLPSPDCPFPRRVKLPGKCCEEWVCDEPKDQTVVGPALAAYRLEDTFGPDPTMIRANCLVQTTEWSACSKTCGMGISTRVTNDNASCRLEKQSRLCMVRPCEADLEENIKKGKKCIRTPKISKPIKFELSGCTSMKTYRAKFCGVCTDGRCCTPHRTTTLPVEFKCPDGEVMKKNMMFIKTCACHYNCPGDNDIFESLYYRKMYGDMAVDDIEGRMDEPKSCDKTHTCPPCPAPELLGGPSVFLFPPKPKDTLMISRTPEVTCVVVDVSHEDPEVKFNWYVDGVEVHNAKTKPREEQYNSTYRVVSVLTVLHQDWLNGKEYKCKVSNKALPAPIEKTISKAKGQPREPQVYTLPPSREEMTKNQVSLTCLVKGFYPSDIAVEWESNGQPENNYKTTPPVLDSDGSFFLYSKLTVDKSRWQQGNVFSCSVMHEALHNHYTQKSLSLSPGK
T2 sequence (P29279 with tags, fused parts or gaps H83D): as above

| Molecule | ONSET MELTING [1] [°C] | TM [1] [°C] | human CTGF koff (human CTGF [2]) [s⁻¹] | human CTGF kon (human CTGF [3]) | Murine CTGF koff (Murine CTGF) | Murine CTGF kon (Murine CTGF) | human CTGF KD (human CTGF [3]) | human CTGF koff (human CTGF [3]) | Murine CTGF KD (Murine CTGF) |
| --- | --- | --- | --- | --- | --- | --- | --- | --- | --- |
| SEQ ID NO: 73: fusion protein comprising two CTGF-binding lipocalin muteins (protein, fusion protein) QDSTSDLIPAPPLSKVPLQQNFQDNQFQGKWYVVGLAGNAILREDKYPAKMFATIYELKEDKSYDVTSVRFENKSCVYTSKTFVPGSQPGEFTTGNIKSAPGQTSTLVRVVSTNYNQHAMVFFKHVSQNREFFVITLYGRTKELTSELKENFIRFSKSLGLPENHIVFPVPIDQCIDGGGGGSGGGGSGGGGSQDSTSDLIPAPPLSKVPLQQNFQDNQFQGKWYVVGWAGNVKLREDKQPQKMSATIYELKEDKSYDVTEVVFEQKKCHYIIKTFVPGSQPGEFTAGDIKSPPGYTSSLVRVVSTNYNQHAMVFFKKVSQNREFFWITLYGRTKELTSELKENFIRFSKSLGLPENHIVFPVPIDQCIDG | 71 | 75 |  |  |  |  |  |  |  |
| SEQ ID NO: 8: optimized CTGF-binding hNGAL lipocalin mutein (protein, lipocalin mutein) QDSTSDLIPAPPLSKVPLQQNFQDNQFQGKWYVVGLAGNYGLRTDKRPSKMFATIYELKEDKSYDVTSVRFEQERCHYTIRTFVPGSQPGEFTSGNIGNYPGSYSTLVRVVSTNYNQHAMVFFKSVIQNREYFAITLYGRTKELTSELKENFIRFSKSLGLPENHIVFPVPIDQCIDG | 49 | 75 | 0.000114 | 45400 M⁻¹ s⁻¹ | 0.000131 s⁻¹ | 72000 M⁻¹ s⁻¹ |  |  |  |
| SEQ ID NO: 14: optimized CTGF-binding hNGAL lipocalin mutein (protein, lipocalin mutein) QDSTSDLIPAPPLSKVPLQQNFQDNQFQGKWYVVGLAGNAILREDKYPAKMFATIYELKEDKSYDVTSVRFEAKSCIYTIKTFVPGSQPGEFTRGNIKSAPGQTSTLVRVVSTNYNQHAMVFFKHVSQNREIFVITLYGRTKELTSELKENFIRFSKSLGLPENHIVFPVPIDQCIDG | 57 | 68 | 5.34e-05 | 102000 M⁻¹ s⁻¹ | 7.03e-05 s⁻¹ | 190000 M⁻¹ s⁻¹ |  |  |  |
| SEQ ID NO: 20: optimized CTGF-binding hNGAL lipocalin mutein (protein, lipocalin mutein) QDSTSDLIPAPPLSKVPLQQNFQDNQFQGKWYVVGLAGNAILREDKQPAKMFATIYELKEDKSYDVTSVRFEAKSCSYTIKTFVPGSQPGEFTAGNIKSAPGQTSTLVRVVSTNYNQHAMVFAKAVQLNREHFFITLYGRTKELTSELKENFIRFSKSLGLPENHIVFPVPIDQCIDG | 46 | 61 |  | B | B | B | B | B | B |
| SEQ ID NO: 13: optimized CTGF-binding hNGAL lipocalin mutein (protein, lipocalin mutein) QDSTSDLIPAPPLSKVPLQQNFQDNQFQGKWYVVGLAGNAILREDKYPAKMFATIYELKEDKSYDVTSVRFENKSCVYTSKTFVPGSQPGEFTTGNIKSAPGQTSTLVRVVSTNYNQHAMVFFKHVSQNREFFVITLYGRTKELTSELKENFIRFSKSLGLPENHIVFPVPIDQCIDG |  |  | 2.51e-06 | 51000 M⁻¹ s⁻¹ | B | B |  |  | B |
| SEQ ID NO: 18: optimized CTGF-binding hNGAL lipocalin mutein (protein, lipocalin mutein) QDSTSDLIPAPPLSKVPLQQNFQDNQFQGKWYVVGIAGNAILRDDKYPAKMFATIYELKEDKSYDVTSVRFENKSCIYTIKTFVPGSQPGEFTHGNIKSHPGQTSTLVRVVSTNYNQHAMVFFKHVSQNREIFVITLYGRTKELTSELKENFIRFSKSLGLPENHIVFPVPIDQCIDG |  |  | 3.05e-06 | 40900 M⁻¹ s⁻¹ | B | B |  |  | B |
| SEQ ID NO: 17: optimized CTGF-binding hNGAL lipocalin mutein (protein, lipocalin mutein) QDSTSDLIPAPPLSKVPLQQNFQDNQFQGKWYVVGLAGNAILRTDKQPAKMFATIYELKEDKSYDVTSVRFEAKSCVYTSKTFVPGSQPGEFTAGNIKSAPGQTSTLVRVVSTNYNQHAMVFFKHVSQNREFFVITLYGRTKELTSELKENFIRFSKSLGLPENHIVFPVPIDQCIDG | 59 | 74 |  | B | B | B | B | B | B |
| SEQ ID NO: 12: optimized CTGF-binding hNGAL lipocalin mutein (protein, lipocalin mutein) QDSTSDLIPAPPLSKVPLQQNFQDNQFQGKWYVVGLAGNAILREDKYPAKMFATIYELKEDKSYDVTSVRFENKSCVYTIKTFVPGSQPGEFTTGNIKSAPGQTSTLVRVVSTNYNQHAMVFFKHVSQNREFFVITLYGRTKELTSELKENFIRFSKSLGLPENHIVFPVPIDQCIDG |  |  | 0.000133 | 55600 M⁻¹ s⁻¹ | 0.000128 s⁻¹ | 91400 M⁻¹ s⁻¹ |  |  |  |
| SEQ ID NO: 11: optimized CTGF-binding hNGAL lipocalin mutein (protein, lipocalin mutein) QDSTSDLIPAPPLSKVPLQQNFQDNQFQGKWYVVGLAGNAILREDKQPAKMFATIYELKEDKSYDVTSVRFEAKSCSYTSKTFVPGSQPGEFTAGNIKSAPGQTSTLVRVVSTNYNQHAMVFFKHVSQNRETFVITLYGRTKELTSELKENFIRFSKSLGLPENHIVFPVPIDQCIDG |  |  | 0.000108 | 44400 M⁻¹ s⁻¹ | 8.19e-05 s⁻¹ | 80100 M⁻¹ s⁻¹ |  |  |  |
| SEQ ID NO: 75: fusion protein comprising two CTGF-binding lipocalin muteins (protein, fusion protein) QDSTSDLIPAPPLSKVPLQQNFQDNQFQGKWYVVGLAGNAILREDKQPAKMFATIYELKEDKSYDVTSVRFEAKSCKYTIKTFVPGSQPGEFTAGYIKSAPGQTSTLVRVVSTNYNQHAMVFFKHVTQNREIFVITLYGRTKELTSELKENFIRFSKSLGLPENHIVFPVPIDQCIDGGGGGSGGGGSGGGGSQDSTSDLIPAPPLSKVPLQQNFQDNQFQGKWYVVGLAGNYRLREDKDPSKMGATIYELKEDKSYDVTQVQFDDKKCLYVIETFVPGSQPGEFTLGAIKSYPGLTSQLVRVVSTNYNQHAMVFVKKVWPNLEYFQIVLYGRTKELTSELKENFIRFSKSLGLPENHIVFPVPIDQCIDG | 58 | 65 |  |  |  |  |  |  |  |
